The values that follow are results of earlier work, collected in PMC6997106.

This data set addresses RAGE V-domain V-domain (Homo sapiens) (UniProt Q15109). Put plainly: SPR. (In SPR one partner is held on a chip, and binding of the other changes the refractive index at the surface.)

Sequence of S100B (P04271 2-92): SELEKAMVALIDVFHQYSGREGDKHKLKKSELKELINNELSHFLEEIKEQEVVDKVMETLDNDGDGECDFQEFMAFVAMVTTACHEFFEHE
Sequence of RAGE V-domain V-domain (Homo sapiens) (Q15109 23-116): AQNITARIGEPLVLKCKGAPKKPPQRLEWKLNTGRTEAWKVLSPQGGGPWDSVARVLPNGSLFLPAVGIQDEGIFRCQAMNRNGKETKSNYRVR

The term Kd denotes a measure of binding affinity in units of concentration. S100B (from UniProt P04271): the equilibrium dissociation constant (Kd) is 500 nM.
